Data as given in US20210230599, “STEM-LOOP COMPOSITIONS AND METHODS FOR INHIBITING INTERLEUKIN-8” (VITRISA THERAPEUTICS, INC., published 2021).

Columns and labels:
[1] = biological target: T1, Interleukin-8 (IL8, CXCL8), C-terminal His-tagged (Homo sapiens, UniProt P10145 SEQ:1-72); assay: inhibition; inhibition of IL8 binding to CXCR1 cells, protein limited; neutrophil migration 2 nM; details: tags: C-terminal His (Sino Biological); stem-loop
Procedure: (§1) CXCR1 overexpressing cells were used to confirm that aptamers could block IL8 binding to its cognate receptor, CXCR1, in a functional setting. Briefly, CXCR1-overexpressing cells were plated in a 96 well plate and seeded overnight. Serially diluted aptamers and 5 nM IL8 were mixed in cell culture media and applied to cells for 2 hours at 37° C. Media was aspirated, and cells were washed 3× with PBS for 5 minutes. Cells were lysed in Ultra HiBlock Buffer (Perkin Elmer) with gentle agitation. IL8 levels were determined using Ultra TR-FRET (Perkin Elmer).

[2] = biological target: T1, Interleukin-8 (IL8, CXCL8), C-terminal …; assay: competition; competition TR-FRET; affinity within error of unpegylated parent; parent given as Aptamer 38 and as Aptamer 3; details: tags: C-terminal His (Sino Biological); stem-loop
Procedure: (§2) To better understand the sequence requirements and to confirm the stem structures of members of the Aptamer 3 family as determined from sequence covariation analysis from both the primary and secondary (degenerate) selections, a series of variants which included mutations and deletions to the predicted stems were synthesized and screened (Table 24). Activity of each of these variants were tested using a time resolved competition TR-FRET assay in which the labeled parent Aptamer 3 was competed with increasing concentrations of unlabeled variants for binding to IL8 (FIG. 14). Briefly, 2-fold dilutions of thermally equilibrated aptamers were made in TR-FRET Buffer (50 mM MOPS, pH 7.4, 125 mM NaCl, 5 mM KCl, 50 μM CHAPS, 0.1 mg/mL BSA, 1 mM CaCl₂, and 1 mM MgCl₂). 5 μL of aptamer or control solution was added to 5 μl mix of 10 nM C-terminal His-tagged-IL8, 60 nM ALEXA FLUOR® 647-labeled Aptamer, and 5 nM anti-His-Eu (Perkin Elmer) in a black wall low volume 384 well plate (Greiner). For control, 5 μl of 1000-fold excess of unlabeled parent aptamer or 5 μl TR-FRET buffer alone was added to the mix of ALEXA FLUOR® 647-labeled aptamer, His-IL8, and anti-His-Eu. The plate was covered with a plate seal and subsequently incubated in the dark for 1 hour at room temperature. The plate was read on a Biotek CYTATION™ 5 plate reader. […]

[3] = biological target: T1, Interleukin-8 (IL8, CXCL8), C-terminal …; assay: competition; competition TR-FRET; S1 disrupted; details: tags: C-terminal 6xHis (Sino Biological)
Procedure: as §2, with “Activity” for “To better understand the sequence requirements and to confirm the stem structures of members of the Aptamer 3 family as determined from sequence covariation analysis from both the primary and secondary (degenerate) selections, a series of variants which included mutations and deletions to the predicted stems were synthesized and screened (Table 24). Activity”
(§3) To better understand the sequence requirements and confirm the stem structures of members of the Aptamer 8 family as determined from sequence covariation analysis from both the primary and secondary (degenerate) selections, a series of variants which included mutations and deletions to the predicted stems (Tables 45 and 46) were synthesized and screened. […]

[4] = biological target: T1, Interleukin-8 (IL8, CXCL8), C-terminal …; assay: inhibition; inhibition of IL8 binding to CXCR1 cells, 5 nM IL8, protein limited; neutrophil migration 3 nM (Table 35); details: tags: C-terminal His (Sino Biological); stem-loop
Procedure: as §1

[5] = biological target: T1, Interleukin-8 (IL8, CXCL8), C-terminal …; assay: competition; competition TR-FRET; U13A; details: tags: C-terminal 6xHis (Sino Biological)
Procedure: as §2, with “Activity” for “To better understand the sequence requirements and to confirm the stem structures of members of the Aptamer 3 family as determined from sequence covariation analysis from both the primary and secondary (degenerate) selections, a series of variants which included mutations and deletions to the predicted stems were synthesized and screened (Table 24). Activity”
as §3

GGCGACGGUAGAUUAUGGGCAGUGUGACCGCGCC (ssRNA, 2'-F G; 2'-OMe A,C,U; 5' C6NH2; 3' idT) [Aptamer 147]
IC50 [1]: 3 nM

GAUGACGGUAGAUUACGGGUAGAGUGACCGCAUC (ssRNA, 2'-F G; 2'-OMe A,C,U; 5' 40 kDa PEG via C6NH2; 3' idT) [Aptamer P01]
binding result [2]: binds

CAAUGGGAAAUGUGAGAUGGGUUGCCG (ssRNA, 2'-F G, 2'-OMe A/C/U, 5' C6NH2, 3' idT) [Aptamer 214]
binding signal [3]: > 10 fold worse than Aptamer 8

UGAUGACGGUAGAUUACGGGUAGAGUGACCGCAUCU (ssRNA, 2'-F G; 2'-OMe A,C,U; 5' C6NH2; 3' idT) [Aptamer 3]
IC50 [4]: 3 nM

CGGUGGGAAAAGUGAGAUGGGUUGCCG (ssRNA, 2'-F G, 2'-OMe A/C/U, 5' C6NH2, 3' idT) [Aptamer 61]
binding result [5]: binds
